# Reference: patent US20120087917A1
# B1: anti-LOXL2 antibody AB0023 (murine monoclonal antibody) (antibody, V domains shown)
# VH: QVQLQQSGAELVRPGTSVKVSCKASGYAFTYYLIEWVKQRPGQGLEWIGVINPGSGGTNYNEKFKGKATLTADKSSSTAYMQLSSLTSDDSAVYFCARNWMNFDYWGQGTTLTVSS
# VL: DIVMTQAAPSVSVTPGESVSISCRSSKSLLHSNGNTYLYWFLQRPGQSPQFLIYRMSNLASGVPDRFSGSGSGTAFTLRISRVEAEDVGVYYCMQHLEYPYTFGGGTKLEIK
# Key:
# [1] = target: LOXL2 (lysyl oxidase-like 2) (human) (UniProt Q9Y4K0); test: cell-based or functional assay
# [2] = target: LOXL2 (lysyl oxidase-like 2) (human) (UniProt Q9Y4K0); test: SPR, Bio-Rad ProteOn, amine coupling, 25 C
# LOXL2 (lysyl oxidase-like 2) (human), sequence (Q9Y4K0 26-774 limits assumed): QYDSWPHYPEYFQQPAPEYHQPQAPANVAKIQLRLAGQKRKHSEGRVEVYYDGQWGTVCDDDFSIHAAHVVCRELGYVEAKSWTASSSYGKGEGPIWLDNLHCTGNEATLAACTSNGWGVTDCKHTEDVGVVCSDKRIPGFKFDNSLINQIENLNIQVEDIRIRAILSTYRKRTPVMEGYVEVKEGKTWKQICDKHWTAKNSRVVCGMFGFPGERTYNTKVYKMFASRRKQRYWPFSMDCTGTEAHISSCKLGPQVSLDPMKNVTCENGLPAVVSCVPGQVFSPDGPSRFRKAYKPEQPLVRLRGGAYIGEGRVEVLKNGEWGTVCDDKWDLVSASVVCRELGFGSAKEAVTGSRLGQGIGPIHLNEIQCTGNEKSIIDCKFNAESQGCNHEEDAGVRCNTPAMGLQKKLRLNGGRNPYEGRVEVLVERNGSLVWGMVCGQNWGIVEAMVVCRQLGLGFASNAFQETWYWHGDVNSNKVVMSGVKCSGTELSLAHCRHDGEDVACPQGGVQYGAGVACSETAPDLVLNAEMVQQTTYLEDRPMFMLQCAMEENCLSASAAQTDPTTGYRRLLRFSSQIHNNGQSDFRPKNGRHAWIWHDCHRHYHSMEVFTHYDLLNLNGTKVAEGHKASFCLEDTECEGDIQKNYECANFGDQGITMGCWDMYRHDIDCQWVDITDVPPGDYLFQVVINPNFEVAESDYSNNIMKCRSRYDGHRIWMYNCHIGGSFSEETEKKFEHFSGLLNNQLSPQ
binder,measurement,setting,value
B1,"apparent IC50, LOXL2 enzymatic activity (amplex red/HRP coupled assay, 1,5-diaminopentane substrate)",[1],30 nM
same,α (effect of the antibody on substrate affinity; mode of inhibition),[1],1
same,β (effect of the antibody on the rate of the enzyme; mode of inhibition),[1],0.5
same,Kd,[2],0.1 to 1 nM
same,t1/2,[2],1.65 h
